In PMC4124618:

System: Cc1[nH]c2ccccc2c1CCN
Test: steady-state kinetics of halogenation
Type: biochemical, Lentzea aerocolonigenes
Details: 21 °C

| Substance | Km (variant 3-LSR) | kcat (variant 3-LSR) | kcat/Km (variant 3-LSR) | Km | kcat | kcat/Km |
| --- | --- | --- | --- | --- | --- | --- |
| RebH (Lentzea aerocolonigenes; E423D/E461G/K145M/M71V/N166S/Q494R/S130L/S2P) | 40.2 ± 3.7 µM | 0.013 ± 0.00036 s⁻¹ | 330 M⁻¹ s⁻¹ | – | – | – |
| RebH (Lentzea aerocolonigenes) | – | – | – | 16.8 ± 3.8 µM | 0.06 ± 0.0057 s⁻¹ | 3600 M⁻¹ s⁻¹ |
